From the supplement of paper PMC9112550, “Optimization of the antimicrobial peptide Bac7 by deep mutational scanning” (BMC Biology, 2022)

Test system: Escherichia coli TOP10
Experiment: shrunken log2 fold change of peptide-encoding DNA abundance (4.5 h post-induction vs induction); higher = less antimicrobial activity (less host growth inhibition)
Conditions: time post-induction: 4.5 h; library: site-saturation at positions 5, 18, 19, 20
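Further: peptides expressed intracellularly from a pBAD plasmid library in pooled LB shake-flask culture, induced with 0.3% L-arabinose, DNA abundance read by NGS, three biological replicates, DESeq2 with apeglm shrinkage.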

| Sequence | shrunken log2 fold change |
| --- | --- |
| RRIRRRPPRLPRPRPRPDLMPRP | 2.63 |
| RRIRTRPPRLPRPRPRPLASPRP | 0.125 |
| RRIRDRPPRLPRPRPRPYGFPRP | -0.0405 |
| RRIRKRPPRLPRPRPRPTWMPRP | 0.466 |
| RRIRVRPPRLPRPRPRPDWQPRP | 0.0968 |
| RRIRTRPPRLPRPRPRPMWDPRP | 0.00971 |
| RRIRTRPPRLPRPRPRPHHNPRP | -0.795 |
| RRIRERPPRLPRPRPRPFTTPRP | -0.381 |
| RRIRVRPPRLPRPRPRPNIMPRP | -0.512 |
| RRIRHRPPRLPRPRPRPIVMPRP | -0.012 |
| RRIRWRPPRLPRPRPRPESWPRP | 1.05 |
| RRIRTRPPRLPRPRPRPFCLPRP | -0.278 |
| RRIRCRPPRLPRPRPRPSPLPRP | 0.21 |
| RRIRHRPPRLPRPRPRPTSRPRP | 0.0698 |
| RRIRRRPPRLPRPRPRPGFYPRP | -0.107 |
| RRIRCRPPRLPRPRPRPHLVPRP | 0.565 |
| RRIRHRPPRLPRPRPRPMNQPRP | -0.221 |
| RRIRRRPPRLPRPRPRPMRDPRP | 0.62 |
| RRIRRRPPRLPRPRPRPISMPRP | 0.0655 |
| RRIRDRPPRLPRPRPRPTACPRP | 0.388 |
| RRIRDRPPRLPRPRPRPLNWPRP | 0.0327 |
| RRIRFRPPRLPRPRPRPQPCPRP | 0.078 |
| RRIRTRPPRLPRPRPRPQWQPRP | 0.0822 |
| RRIRYRPPRLPRPRPRPFPPPRP | -0.809 |
| RRIRSRPPRLPRPRPRPRAHPRP | 0.409 |

| Sequence | shrunken log2 fold change |
| --- | --- |
| RRIRQRPPRLPRPRPRPVHGPRP | -0.0392 |
| RRIRHRPPRLPRPRPRPMYCPRP | -0.125 |
| RRIRFRPPRLPRPRPRPKIYPRP | -0.328 |
| RRIRERPPRLPRPRPRPDIFPRP | 0.0405 |
| RRIRTRPPRLPRPRPRPRCKPRP | 0.0432 |
| RRIRQRPPRLPRPRPRPSLDPRP | -0.222 |
| RRIRPRPPRLPRPRPRPQGIPRP | 0.102 |
| RRIRIRPPRLPRPRPRPYDGPRP | -0.0104 |
| RRIRVRPPRLPRPRPRPKVNPRP | -0.288 |
| RRIRTRPPRLPRPRPRPGRKPRP | 0.282 |
| RRIRSRPPRLPRPRPRPSLDPRP | -0.0696 |
| RRIRSRPPRLPRPRPRPARNPRP | 0.611 |
| RRIRWRPPRLPRPRPRPPREPRP | 0.808 |
| RRIRDRPPRLPRPRPRPKMEPRP | -0.00783 |
| RRIRYRPPRLPRPRPRPWTRPRP | 0.0101 |
| RRIRSRPPRLPRPRPRPQEPPRP | -0.284 |
| RRIRARPPRLPRPRPRPKGLPRP | 0.433 |
| RRIRARPPRLPRPRPRPQVAPRP | 0.591 |
| RRIRIRPPRLPRPRPRPLGTPRP | -0.356 |
| RRIRKRPPRLPRPRPRPYKFPRP | -0.0374 |
| RRIRFRPPRLPRPRPRPCFKPRP | -0.426 |
| RRIRSRPPRLPRPRPRPENCPRP | 0.00362 |
| RRIRLRPPRLPRPRPRPHEKPRP | 0.0162 |
| RRIRCRPPRLPRPRPRPTVSPRP | 0.0953 |
| RRIRLRPPRLPRPRPRPKPEPRP | 0.249 |

| Sequence | shrunken log2 fold change |
| --- | --- |
| RRIRARPPRLPRPRPRPAENPRP | 0.865 |
| RRIRERPPRLPRPRPRPEMTPRP | -0.0236 |
| RRIRYRPPRLPRPRPRPCFNPRP | -0.262 |
| RRIRLRPPRLPRPRPRPNFMPRP | -0.117 |
| RRIRARPPRLPRPRPRPDLNPRP | 0.473 |
| RRIRTRPPRLPRPRPRPLLAPRP | 0.282 |
| RRIRGRPPRLPRPRPRPGPLPRP | 0.363 |
| RRIRERPPRLPRPRPRPYGFPRP | -0.382 |
| RRIRDRPPRLPRPRPRPDGSPRP | 0.0891 |
| RRIRMRPPRLPRPRPRPHWNPRP | -0.271 |
| RRIRGRPPRLPRPRPRPGGFPRP | 0.819 |
| RRIRVRPPRLPRPRPRPLISPRP | -0.0293 |
| RRIRLRPPRLPRPRPRPDAYPRP | -0.281 |
| RRIRARPPRLPRPRPRPFPCPRP | 0.0215 |
| RRIRARPPRLPRPRPRPNKHPRP | -0.171 |
| RRIRLRPPRLPRPRPRPFTYPRP | -0.0906 |
| RRIRYRPPRLPRPRPRPAYTPRP | -0.222 |
| RRIRCRPPRLPRPRPRPTWSPRP | 0.346 |
| RRIRDRPPRLPRPRPRPGDYPRP | 0.0583 |
| RRIRERPPRLPRPRPRPTDSPRP | 0.0161 |
| RRIRVRPPRLPRPRPRPTMLPRP | -0.205 |
| RRIRYRPPRLPRPRPRPFEFPRP | -0.153 |
| RRIRIRPPRLPRPRPRPHVYPRP | -0.112 |
| RRIRERPPRLPRPRPRPNGVPRP | -0.2 |
| RRIRNRPPRLPRPRPRPDCDPRP | -0.132 |
